For five molecules, Kd, stoichiometry N and overall SPR response relative to WT SpmX results are on record in article PMC5347347, “A Localized Complex of Two Protein Oligomers Controls the Orientation of Cell Polarity” (mBio, 2017).

Data set [1] concerns the target SpmX-L (SpmX lysozyme-like domain alone, residues 1 to 155) (Caulobacter crescentus). In words: MST; Atto-488-labelled SpmX* or SpmX-L* held constant at 25 nM; PopZ (max 10 μM), DivJ (max 40 μM) or unlabelled SpmX titrated in 2-fold serial dilutions; incubated 10 min at room temperature; fitted by the law of mass action.
Data set [2] has as its target SpmX (purified WT SpmX without its transmembrane region, residues 1 to 355) (Caulobacter crescentus). The data set is described as above.
For data set [3], the target named is SpmX E19R (purified) (Caulobacter crescentus). As to the kind of experiment: SEC; analytical size exclusion, Superdex 200 Increase 10/300 GL; apparent masses from a Bio-Rad gel filtration standard; purified SpmX variants alone.
Data set [4] deals with PopZ (purified, His-tagged) (Caulobacter crescentus). In words: SPR; PopZ immobilised on the sensor chip; 2-fold serial dilutions of WT SpmX or SpmX-L injected, with washes between injections.
PopZ (purified, His-tagged) (Caulobacter crescentus), sequence (A0A0H3C7Y4 entry or part of it): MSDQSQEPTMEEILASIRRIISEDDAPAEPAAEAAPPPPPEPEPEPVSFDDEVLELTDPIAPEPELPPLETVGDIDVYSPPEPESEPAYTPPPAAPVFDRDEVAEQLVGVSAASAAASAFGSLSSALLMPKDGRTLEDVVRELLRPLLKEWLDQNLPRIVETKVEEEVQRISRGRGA
Data set [5] concerns the molecule itself. In words: MST; Atto-488-labelled SpmX* or SpmX-L* held constant at 25 nM; PopZ (max 10 μM), DivJ (max 40 μM) or unlabelled SpmX titrated in 2-fold serial dilutions; incubated 10 min at room temperature; fitted by the law of mass action.
The target in data set [6] is T1, DivJ histidine kinase (purified without its TM regions, His-tagged) (Caulobacter crescentus, UniProt Q03228 189-597).
T1 construct: DivJ histidine kinase, Caulobacter crescentus, purified without its TM regions (the cytoplasmic portion); Construct limits are expected in Text S1; also called cytoplasmic portion of DivJ; source: purified, His-tagged
T1 sequence (looked up): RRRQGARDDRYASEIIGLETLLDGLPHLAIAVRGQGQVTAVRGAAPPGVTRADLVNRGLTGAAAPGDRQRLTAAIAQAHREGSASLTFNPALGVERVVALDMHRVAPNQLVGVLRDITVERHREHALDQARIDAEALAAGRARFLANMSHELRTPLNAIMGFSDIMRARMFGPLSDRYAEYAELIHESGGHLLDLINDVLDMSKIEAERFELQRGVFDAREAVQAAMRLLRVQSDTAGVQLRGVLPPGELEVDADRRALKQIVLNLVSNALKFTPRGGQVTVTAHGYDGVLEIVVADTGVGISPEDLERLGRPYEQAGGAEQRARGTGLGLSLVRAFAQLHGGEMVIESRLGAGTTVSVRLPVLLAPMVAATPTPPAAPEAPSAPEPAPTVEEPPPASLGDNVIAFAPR
The description is as above. The conditions noted are these: both partners purified.

As to “DivJ histidine kinase (purified without its TM regions, His-tagged) (from UniProt Q03228 189-597) (domain or fragment)”, in data set [1], the Kd turned out to be 6300 nM.

In the case of “PopZ (purified, His-tagged) (natural protein)”, the Kd in data set [1] is 120 nM; in data set [2], 600 nM.

With “SpmX E19R (purified) (domain or fragment)”, the stoichiometry N in data set [3] turned out to be 4.

Regarding “SpmX-L (SpmX lysozyme-like domain alone, residues 1 to 155) (domain or fragment)”, the overall SPR response relative to WT SpmX at comparable concentrations in data set [4] was 2 fold.

B1: SpmX (purified WT SpmX without its transmembrane region, residues 1 to 355) (domain or fragment, Caulobacter crescentus, UniProt A0A0H3C9Y4 1-355, looked up)
chain: MKPRHQVSRAAVDLIKRFEGYRQKAAQLPDGRWTVGYGHTLTAREGASVSEKDAEALLLYDLISVAHSVNEHTYTPLNQNQFDALVCFAFNIGLDNFLRSGVLRRINEGSLLQAACAMEMWRKADFEGERIVIDALVRRRSAEKTLFLTPANGEWVPAPSPVLRPKVDYDASCAVPKQTPATVNTRTEGDRVIAQREEGLPLNVVVPEEDAPTATEQSAAAVAARLEAILPETPSAPASMAKPAMRQDDLGLPEPPAPTQPAAMEPAPVLFEAEPQPAPVEPPPAAPVEFTPFRLTPQASEQAEAPVEAPAPTRPAPSEPTLFGAPATGSSVFNLDGFSTSEDATVGVMDVPLVE
modifications: Atto-488 on lysine residues, approximately one dye molecule per protein (only the labelled copy SpmX* held constant in MST; unlabelled as titrant and in SPR, SEC and native gel)
notes: purified without the TM region, residues 1 to 355; predicted monomeric mass 40.1 kDa; Forms higher-order oligomers (void volume in SEC, ladder in native gel); Construct details are in Text S1; also called SpmX-ΔTM; source: purified, His-tagged
For B1, the Kd worked out at 360 ± 50 nM in data set [5], 510 ± 90 nM in data set [6] and 630 nM in data set [1].
